From patent US20230002480A1

Key:
Assay in all cases: cell-based or functional assay
[1] = biological target: HIV-1 Env of pseudovirus 0815.v3.c3 (HIV-1)
[2] = biological target: HIV-1 Env of pseudovirus 1056_10_TA11_1826 (HIV-1)
[3] = biological target: HIV-1 Env of pseudovirus 246F C1G (HIV-1)
[4] = biological target: HIV-1 Env of pseudovirus 3301.v1.c24 (HIV-1)
[5] = biological target: HIV-1 Env of pseudovirus 6540.v4.c1 (HIV-1)
[6] = biological target: HIV-1 Env of pseudovirus 6811.v7.c18 (HIV-1)
[7] = biological target: HIV-1 Env of pseudovirus 7030102001E5(Rev-) (HIV-1)
[8] = biological target: HIV-1 Env of pseudovirus 9004SS_A3_4 (HIV-1)
[9] = biological target: HIV-1 Env of pseudovirus 928-28 (HIV-1)
[10] = biological target: HIV-1 Env of pseudovirus AC10.0.29 (HIV-1)
[11] = biological target: HIV-1 Env of pseudovirus CAP210.2.00.E8 (HIV-1)
[12] = biological target: HIV-1 Env of pseudovirus CNE20 (HIV-1)
[13] = biological target: HIV-1 Env of pseudovirus CNE21 (HIV-1)
[14] = biological target: HIV-1 Env of pseudovirus CNE5 (HIV-1)
[15] = biological target: HIV-1 Env of pseudovirus CNE52 (HIV-1)
[16] = biological target: HIV-1 Env of pseudovirus Ce0393_C3 (HIV-1)
[17] = biological target: HIV-1 Env of pseudovirus Ce0682_E4 (HIV-1)
[18] = biological target: HIV-1 Env of pseudovirus Ce2060_G9 (HIV-1)
[19] = biological target: HIV-1 Env of pseudovirus Ce704809221_1B3 (HIV-1)
[20] = biological target: HIV-1 Env of pseudovirus Du172.17 (HIV-1)
[21] = biological target: HIV-1 Env of pseudovirus Q461.e2 (HIV-1)
[22] = biological target: HIV-1 Env of pseudovirus T250-4 (HIV-1)
[23] = biological target: HIV-1 Env of pseudovirus T251-18 (HIV-1)
[24] = biological target: HIV-1 Env of pseudovirus T255-34 (HIV-1)
[25] = biological target: HIV-1 Env of pseudovirus T257-31 (HIV-1)
[26] = biological target: HIV-1 Env of pseudovirus THRO4156.18 (HIV-1)
[27] = biological target: HIV-1 Env of pseudovirus TRJO4551.58 (HIV-1)
[28] = biological target: HIV-1 Env of pseudovirus WITO4160.33 (HIV-1)
[29] = biological target: HIV-1 Env of pseudovirus X1193_c1 (HIV-1)
[30] = biological target: HIV-1 Env of pseudovirus X2088_c9 (HIV-1)
[31] = biological target: HIV-1 Env of pseudovirus X2131_C1_B5 (HIV-1)
[32] = biological target: HIV-1 Env of pseudovirus ZM135M.PL10a (HIV-1)
[33] = biological target: HIV-1 Env of pseudovirus ZM197M.PB7 (HIV-1)
[34] = biological target: HIV-1 Env of pseudovirus ZM214M.PL15 (HIV-1)
[35] = biological target: HIV-1 Env of pseudovirus ZM249M.PL1 (HIV-1)
[36] = biological target: HIV-1 Env of pseudovirus 191084 B7-19 (HIV-1)

## PGT121 (antibody)
[1]
  IC50: 0.025 µg/mL
  IC80: 0.111 µg/mL
[2]
  IC50: 0.004 µg/mL
  IC80: 0.081 µg/mL
[3]
  IC50: 0.041 µg/mL
  IC80: 0.14 µg/mL
[4]
  IC50: 0.008 µg/mL
  IC80: 0.019 µg/mL
[5]
  IC50: > 50 µg/mL
  IC80: > 50 µg/mL
[6]
  IC50: < 0.001 µg/mL
  IC80: 0.001 µg/mL
[7]
  IC50: 0.009 µg/mL
  IC80: 0.027 µg/mL
[8]
  IC50: < 0.001 µg/mL
  IC80: 0.003 µg/mL
[9]
  IC50: 44.2 µg/mL
  IC80: > 50 µg/mL
[10]
  IC50: 0.024 µg/mL
  IC80: 0.073 µg/mL
[11]
  IC50: 26.3 µg/mL
  IC80: > 50 µg/mL
[12]
  IC50: < 0.001 µg/mL
  IC80: 0.002 µg/mL
[13]
  IC50: 0.007 µg/mL
  IC80: 0.035 µg/mL
[14]
  IC50: > 50 µg/mL
  IC80: > 50 µg/mL
[15]
  IC50: 2.04 µg/mL
  IC80: 18.9 µg/mL
[16]
  IC50: > 50 µg/mL
  IC80: > 50 µg/mL
[17]
  IC50: > 50 µg/mL
  IC80: > 50 µg/mL
[18]
  IC50: > 50 µg/mL
  IC80: > 50 µg/mL
[19]
  IC50: 0.025 µg/mL
  IC80: 0.126 µg/mL
[20]
  IC50: 0.033 µg/mL
  IC80: 0.257 µg/mL
[21]
  IC50: > 50 µg/mL
  IC80: > 50 µg/mL
[22]
  IC50: < 0.001 µg/mL
  IC80: 0.005 µg/mL
[23]
  IC50: 29 µg/mL
  IC80: > 50 µg/mL
[24]
  IC50: 18.7 µg/mL
  IC80: > 50 µg/mL
[25]
  IC50: > 50 µg/mL
  IC80: > 50 µg/mL
[26]
  IC50: > 50 µg/mL
  IC80: > 50 µg/mL
[27]
  IC50: 1.31 µg/mL
  IC80: 37.9 µg/mL
[28]
  IC50: 0.334 µg/mL
  IC80: 2.35 µg/mL
[29]
  IC80: 0.086 µg/mL
[30]
  IC50: 0.003 µg/mL
  IC80: 0.013 µg/mL
[31]
  IC50: 0.004 µg/mL
  IC80: 0.023 µg/mL
[32]
  IC50: 0.716 µg/mL
  IC80: 5.25 µg/mL
[33]
  IC50: > 50 µg/mL
  IC80: > 50 µg/mL
[34]
  IC50: 0.46 µg/mL
  IC80: 2.04 µg/mL
[35]
  IC50: > 50 µg/mL
  IC80: > 50 µg/mL

## PGT128 (antibody)
[1]
  IC50, titer in TZM.bl cells: 0.03 µg/mL
  IC80, titer in TZM.bl cells: 0.137 µg/mL
[2]
  IC50: < 0.001 µg/mL
  IC80: 0.008 µg/mL
[36]
  IC50: 0.022 µg/mL
  IC80: 0.152 µg/mL
[3]
  IC50: 0.005 µg/mL
  IC80: 0.014 µg/mL
[4]
  IC50, titer in TZM.bl cells: 0.067 µg/mL
  IC80, titer in TZM.bl cells: 0.499 µg/mL
[5]
  IC50, titer in TZM.bl cells: 11.8 µg/mL
  IC80, titer in TZM.bl cells: > 50 µg/mL
[6]
  IC50, titer in TZM.bl cells: 0.003 µg/mL
  IC80, titer in TZM.bl cells: 0.05 µg/mL
[7]
  IC50: 0.007 µg/mL
  IC80: 0.022 µg/mL
[8]
  IC50: 0.002 µg/mL
  IC80: 0.01 µg/mL
[9]
  IC50: > 50 µg/mL
  IC80: > 50 µg/mL
[10]
  IC50: 0.008 µg/mL
  IC80: 0.018 µg/mL
[11]
  IC50: > 50 µg/mL
  IC80: > 50 µg/mL
[12]
  IC50: 0.001 µg/mL
  IC80: 0.004 µg/mL
[13]
  IC50: 0.01 µg/mL
  IC80: 0.026 µg/mL
[14]
  IC50, titer in TZM.bl cells: 0.018 µg/mL
  IC80, titer in TZM.bl cells: 0.253 µg/mL
[15]
  IC50: > 50 µg/mL
  IC80: > 50 µg/mL
[16]
  IC50: > 50 µg/mL
  IC80: > 50 µg/mL
[17]
  IC50: > 50 µg/mL
  IC80: > 50 µg/mL
[18]
  IC50: > 50 µg/mL
  IC80: > 50 µg/mL
[19]
  IC50: 0.026 µg/mL
  IC80: 0.072 µg/mL
[20]
  IC50: 0.028 µg/mL
  IC80: 0.08 µg/mL
[21]
  IC50: > 50 µg/mL
  IC80: > 50 µg/mL
[22]
  IC50: < 0.001 µg/mL
  IC80: 0.007 µg/mL
[23]
  IC50, titer in TZM.bl cells: > 50 µg/mL
  IC80, titer in TZM.bl cells: > 50 µg/mL
[24]
  IC50, titer in TZM.bl cells: > 50 µg/mL
  IC80, titer in TZM.bl cells: > 50 µg/mL
[25]
  IC50: > 50 µg/mL
  IC80: > 50 µg/mL
[26]
  IC50: > 50 µg/mL
  IC80: > 50 µg/mL
[27]
  IC50: 0.018 µg/mL
  IC80: 0.041 µg/mL
[28]
  IC50: > 50 µg/mL
  IC80: > 50 µg/mL
[29]
  IC50, titer in TZM.bl cells: > 50 µg/mL
  IC80, titer in TZM.bl cells: > 50 µg/mL
[30]
  IC50, titer in TZM.bl cells: > 50 µg/mL
  IC80, titer in TZM.bl cells: > 50 µg/mL
[31]
  IC50, titer in TZM.bl cells: > 50 µg/mL
  IC80, titer in TZM.bl cells: > 50 µg/mL
[32]
  IC50: > 50 µg/mL
  IC80: > 50 µg/mL
[33]
  IC50: > 50 µg/mL
  IC80: > 50 µg/mL
[34]
  IC50: 1.5 µg/mL
  IC80: 29.4 µg/mL
[35]
  IC50: 39.7 µg/mL
  IC80: > 50 µg/mL
